Literature values, collected in patent US10023622B2, “Method of immunization for reducing toxic damaged caused by oligomeric form of the amyloid-beta protein with stable amyloid beta monomers and oligomers” (ALZINOVA AB, priority 2008, dated 2018).

details: oxidized derivatives (cystines)

Fibrillation of oxidized disulphide mutants, all fibrillate:
F19C/A30C: previously published Aβ peptide disulphide mutant (Wetzel et al.)
F19C/I32C: previously published Aβ peptide disulphide mutant (Wetzel et al.)
F19C/L34C: previously published Aβ peptide disulphide mutant (Wetzel et al.)
L17C/L34C: previously published Aβ peptide disulfide mutant (Shivaprasad and Wetzel)
L17C/M35C: previously published Aβ peptide disulfide mutant (Shivaprasad and Wetzel)
V18C/L34C: previously published Aβ peptide disulphide mutant (Wetzel et al.)
